Measured values taken from patent US20240287172A1 (SCIRHOM, published 2024).
Residue numbers refer to the chain shown, from its start.

Experiments:
hiR2-FL-L539A-T7 = biological target: T1, hiR2-FL-L539A-T7 (human, UniProt Q6PJF5 1-856); experiment: FACS on MEF-DKO-hiR2-FL-L539A-T7 cells
T1 construct: on MEF-DKO cells
T1 sequence: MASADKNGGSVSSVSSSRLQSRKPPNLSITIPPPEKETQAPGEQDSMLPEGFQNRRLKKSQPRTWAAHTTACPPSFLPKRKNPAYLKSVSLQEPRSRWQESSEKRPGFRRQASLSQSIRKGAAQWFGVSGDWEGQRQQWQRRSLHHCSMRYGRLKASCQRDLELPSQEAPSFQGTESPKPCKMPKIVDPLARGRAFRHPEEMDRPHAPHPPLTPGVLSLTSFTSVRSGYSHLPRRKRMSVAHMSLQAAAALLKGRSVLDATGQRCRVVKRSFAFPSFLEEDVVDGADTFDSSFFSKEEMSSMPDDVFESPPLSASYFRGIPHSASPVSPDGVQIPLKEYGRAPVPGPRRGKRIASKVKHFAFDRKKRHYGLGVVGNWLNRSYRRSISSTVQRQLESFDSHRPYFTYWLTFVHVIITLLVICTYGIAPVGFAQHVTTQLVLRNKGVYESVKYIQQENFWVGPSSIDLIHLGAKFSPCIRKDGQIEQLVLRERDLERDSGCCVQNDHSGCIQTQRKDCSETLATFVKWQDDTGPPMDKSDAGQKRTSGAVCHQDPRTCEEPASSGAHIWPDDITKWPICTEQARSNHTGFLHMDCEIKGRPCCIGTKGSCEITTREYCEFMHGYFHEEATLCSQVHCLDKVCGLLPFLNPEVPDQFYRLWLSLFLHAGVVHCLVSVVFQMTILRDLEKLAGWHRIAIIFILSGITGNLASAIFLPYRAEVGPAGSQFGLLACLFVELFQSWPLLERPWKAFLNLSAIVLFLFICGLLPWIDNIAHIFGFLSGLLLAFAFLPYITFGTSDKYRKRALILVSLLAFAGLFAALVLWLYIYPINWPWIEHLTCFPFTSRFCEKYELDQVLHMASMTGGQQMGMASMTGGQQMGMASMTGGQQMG

hiR2-FL-I566E-T7 = biological target: T2, hiR2-FL-I566E-T7 (human, UniProt Q6PJF5 1-856); experiment: FACS on MEF-DKO cells
T2 construct: on MEF-DKO cells; also called hiR2-FL-1566E-T7
T2 sequence: T1 sequence with A539L, I566E

hiR2-FL-L589P-T7 = biological target: T3, hiR2-FL-L589P-T7 (human, UniProt Q6PJF5 1-856); experiment: FACS on MEF-DKO cells
T3 sequence: T1 sequence with A539L, L589P

B1: antibody 3 (antibody, V domains shown)
VH: QVTLKESGPGILQPSQTLSLTCSFSGFSLTTFAMGIGWVRQPSGKGLEWLAHIWWDGEKYNNPVLKSRLTISKDTSKNQVFLRIANVDTPDTATYYCARISSIYYIIDNWGQGTSVTVSS
VL: DIVLTQSPATLSVTPGHSVSLSCRASQSISNNLHWYQKKSHESPRLLIKYVSQSISGIPSRFSGSGSGTDFTLSINSVETEDFGMYFCQQSYNWPLTFGAGTKLELK
notes: mouse IgG, kappa light chain; also called clone #3; purified antibody 3
binding result (hiR2-FL-L539A-T7): no binding (tested: 3 µg/ml)

B2: antibody 5 (antibody, V domains shown)
VH: QVTLKESGPGILQPSQTLSLTCSFSGFSLSTFGMGVGWIRQPSGKGLEWLAHIWWDDEKYYNSALKSRLTISKATSKNQAFLKIANVDTADTATYYCARISNYGSNYWYFNVWGTGTTVTVSS
VL: QVVLTQSPALMSASPGEKVTMTCSAGSSVSCMYWYQQKPGSSPRVLIYDTSNLASGVPARFTGSGSGTSYSLTISRMEAEDAASYYCQQWNSYPLTFGAGTKLELK
notes: mouse IgG, kappa light chain; also called clone #5; purified antibody 5
binding result (hiR2-FL-I566E-T7): no binding (tested: 3 µg/ml)

B3: antibody 50 (antibody, V domains shown)
VH: QVQLQQSGAELVRPGASVKVSCKASGYAFSNYLIEWVKQRPGQGLEWIGVINPGSGFTKYNEKFKGKATLTADKSSSTAYMQLSSLTSEDSAVYFCARGLYRAMDYWGQGTSVTVSS
VL: DIQMTQSPASQSASLGESVTITCLASQTIGTWLAWYQQKPGKSPQLLIYAAASLADGVPSRFSGGGSGTKFSFKISSLQAEDFVNYYCQQIYSTPYTFGGGTKLEIK
notes: mouse IgG, kappa light chain; also called clone #50; purified antibody 50
binding result (hiR2-FL-L589P-T7): no binding (tested: 3 µg/ml)
